Reference: PMC7062188, “The crystal structure of human forkhead box N1 in complex with DNA reveals the structural basis for forkhead box family specificity”

How the values were obtained:
FOXN1 1-614 [1] = biological target: T1, FOXN1 1-614 (human, UniProt O15353 1-614); assay: fluorescence polarization; EMSA: 50 mM Tris-HCl pH 7.5, 25 mM NaCl, 0.5 mM EDTA, 0.1% Tween 20, 2 mM DTT, 5% glycerol, 30 min room temperature; FP: 10 mM HEPES pH 7.5, 50 mM NaCl, 1 mM TCEP, 10 nM probe; conditions: protein: recombinant; tags: His tag (pNIC28-Bsa4), cleaved with TEV; label: 3' FITC on strand 1; blunt
T1 sequence: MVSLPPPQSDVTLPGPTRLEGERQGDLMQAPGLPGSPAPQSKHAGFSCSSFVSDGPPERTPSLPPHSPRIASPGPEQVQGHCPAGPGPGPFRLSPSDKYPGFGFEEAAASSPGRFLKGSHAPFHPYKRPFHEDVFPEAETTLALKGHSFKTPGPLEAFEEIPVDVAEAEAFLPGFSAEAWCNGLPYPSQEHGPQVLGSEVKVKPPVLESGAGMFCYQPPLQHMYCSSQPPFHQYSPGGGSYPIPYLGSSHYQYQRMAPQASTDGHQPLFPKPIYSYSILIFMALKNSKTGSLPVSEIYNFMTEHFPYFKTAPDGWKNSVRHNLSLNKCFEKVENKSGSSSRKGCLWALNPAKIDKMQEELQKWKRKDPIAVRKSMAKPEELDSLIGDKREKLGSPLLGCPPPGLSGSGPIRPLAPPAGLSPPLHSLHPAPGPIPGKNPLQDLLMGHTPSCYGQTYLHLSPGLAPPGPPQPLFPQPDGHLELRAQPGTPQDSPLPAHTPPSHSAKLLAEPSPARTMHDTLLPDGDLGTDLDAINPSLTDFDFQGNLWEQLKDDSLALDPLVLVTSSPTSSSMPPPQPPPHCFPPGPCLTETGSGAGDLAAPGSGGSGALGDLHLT

FOXN1 1-614 [2] = biological target: T1, FOXN1 1-614; assay: EMSA; apparent Kd; EMSA: 50 mM Tris-HCl pH 7.5, 25 mM NaCl, 0.5 mM EDTA, 0.1% Tween 20, 2 mM DTT, 5% glycerol, 30 min room temperature; FP: 10 mM HEPES pH 7.5, 50 mM NaCl, 1 mM TCEP, 10 nM probe; conditions: protein: recombinant; tags: His tag (pNIC28-Bsa4), cleaved with TEV; label: 32P on forward strand (5', T4 PNK); blunt
FOXN1 forkhead domain [3] = biological target: T2, FOXN1 forkhead domain (human, UniProt O15353 270-366); assay: X-ray crystallography; 1.6 A structure; crystals at pH 4.5; EMSA: 50 mM Tris-HCl pH 7.5, 25 mM NaCl, 0.5 mM EDTA, 0.1% Tween 20, 2 mM DTT, 5% glycerol, 30 min room temperature; FP: 10 mM HEPES pH 7.5, 50 mM NaCl, 1 mM TCEP, 10 nM probe; conditions: protein: recombinant; tags: His tag (pNIC28-Bsa4), cleaved with TEV; blunt
T2 sequence: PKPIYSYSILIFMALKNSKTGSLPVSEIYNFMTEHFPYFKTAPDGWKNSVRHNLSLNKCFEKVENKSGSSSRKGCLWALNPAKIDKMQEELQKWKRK

FOXN1 1-614 [4] = biological target: T1, FOXN1 1-614; assay: EMSA; apparent Kd; multiple shifted species; EMSA: 50 mM Tris-HCl pH 7.5, 25 mM NaCl, 0.5 mM EDTA, 0.1% Tween 20, 2 mM DTT, 5% glycerol, 30 min room temperature; FP: 10 mM HEPES pH 7.5, 50 mM NaCl, 1 mM TCEP, 10 nM probe; conditions: protein: recombinant; tags: His tag (pNIC28-Bsa4), cleaved with TEV; label: 32P on forward strand (5', T4 PNK); blunt
FOXN1 forkhead domain [5] = biological target: T2, FOXN1 forkhead domain; assay: EMSA; no significant binding over the concentration range tested; EMSA: 50 mM Tris-HCl pH 7.5, 25 mM NaCl, 0.5 mM EDTA, 0.1% Tween 20, 2 mM DTT, 5% glycerol, 30 min room temperature; FP: 10 mM HEPES pH 7.5, 50 mM NaCl, 1 mM TCEP, 10 nM probe; conditions: protein: recombinant; tags: His tag (pNIC28-Bsa4), cleaved with TEV; label: 32P on forward strand (5', T4 PNK); blunt

B1: tandem FKH FP probe (dsDNA)
DNA 1: GCAGCATAAACAACAGAGCGATAAACCAGGG
DNA 2: CCCTGGTTTATCGCTCTGTTGTTTATGCTGC
FOXN1 1-614 [1]
  Kd: 85 ± 11 nM

B2: tandem FKH EMSA probe (dsDNA)
DNA 1: AGCATAAACAACAGAGCGATAAACCAGG
DNA 2: CCTGGTTTATCGCTCTGTTGTTTATGCT
FOXN1 1-614 [2]
  Kd: 205 ± 21 nM

B3: Psmb11 FHL 13-mer (dsDNA)
DNA 1: TGAAGACGCCACC
DNA 2: GGTGGCGTCTTCA
FOXN1 forkhead domain [3]
  binding result: binds

B4: PSMA7 tandem FHL EMSA probe (dsDNA)
DNA 1: GCAGCAGACGCAACAGAGCGAGACGCCAGGG
DNA 2: CCCTGGCGTCTCGCTCTGTTGCGTCTGCTGC
FOXN1 1-614 [4]
  Kd: 82 ± 8 nM
FOXN1 forkhead domain [5]
  binding result: no binding

B5: tandem FHL FP probe (dsDNA)
DNA 1: B4 DNA 1
DNA 2: B4 DNA 2
FOXN1 1-614 [1]
  Kd: 38 ± 3.3 nM
